From patent US11787839B2, “Targeting α2δ-1-bound glutamate receptors for treating diseases and disorders” (Board of Regents, The University of Texas System, priority 2017, dated 2023)

Tests used:
SHRs = assay: PVN microinjection and recording of ABP and RSNA in SHRs; format: in vivo, rat; details: 50 pmol
Procedure: PVN microinjection and recording of renal sympathetic nerve activity: Rats were anaesthetized via i.p. administration of a mixture of α-chloralose (60 mg kg-1) and urethane (800 mg kg-1) and mechanically ventilated with trachea cannulation. The arterial blood pressure (ABP) was monitored via a catheter placed in the left femoral artery, and heart rate (HR) was extracted from the pulsatile pressure wave. A retroperitoneal incision was made, and a branch of the left renal postganglionic sympathetic nerve was isolated under a surgical microscope. The renal sympathetic nerve was cut distally to ensure that afferent activity was not recorded. The ABP, HR and renal sympathetic nerve activity (RSNA) were recorded using a 1401-PLUS analogue-to-digital converter and Spike2 system (Cambridge Electronic Design, Cambridge, UK). After the brain was exposed, a microinjection pipette (tip diameter 20-30 μm) was advanced into the PVN in accordance with the stereotactic co-ordinates: 1.6-2.0 mm caudal to the bregma, 0.5 mm lateral to the midline and 7.0-7.5 mm ventral to the dura. The microinjection was performed using a Nanoject II (Drummond Scientific Company) and monitored using a surgical microscope as described previously (Li & Pan, 2006, 2007; Qiao et al. 2017). […] At the end of each experiment, the electrical background noise was measured after the proximal end of renal nerve was crushed at the end of each experiment. To determine the location of the injection site and diffusion of the drugs in the PVN, 5% rhodamine-labelled fluorescent microspheres (0.04 μm; Molecular Probes) were included in the injection solution. Rats were excluded from the data analysis if the microinjections were misplaced outside the PVN.

[1] = molecular target: T1, α2δ-1-GluN1 protein complex (Mus musculus, UniProt O08532+P35438); assay: Co-IP of α2δ-1 and GluN1 in mouse brain slices; format: cell-based
T1 construct: from tissue; host or cells: mouse brain slices (hippocampal CA1, hypothalamic PVN, brain tissue membrane extracts)
T1 sequence (O08532 25-956 limits assumed, other chains not shown): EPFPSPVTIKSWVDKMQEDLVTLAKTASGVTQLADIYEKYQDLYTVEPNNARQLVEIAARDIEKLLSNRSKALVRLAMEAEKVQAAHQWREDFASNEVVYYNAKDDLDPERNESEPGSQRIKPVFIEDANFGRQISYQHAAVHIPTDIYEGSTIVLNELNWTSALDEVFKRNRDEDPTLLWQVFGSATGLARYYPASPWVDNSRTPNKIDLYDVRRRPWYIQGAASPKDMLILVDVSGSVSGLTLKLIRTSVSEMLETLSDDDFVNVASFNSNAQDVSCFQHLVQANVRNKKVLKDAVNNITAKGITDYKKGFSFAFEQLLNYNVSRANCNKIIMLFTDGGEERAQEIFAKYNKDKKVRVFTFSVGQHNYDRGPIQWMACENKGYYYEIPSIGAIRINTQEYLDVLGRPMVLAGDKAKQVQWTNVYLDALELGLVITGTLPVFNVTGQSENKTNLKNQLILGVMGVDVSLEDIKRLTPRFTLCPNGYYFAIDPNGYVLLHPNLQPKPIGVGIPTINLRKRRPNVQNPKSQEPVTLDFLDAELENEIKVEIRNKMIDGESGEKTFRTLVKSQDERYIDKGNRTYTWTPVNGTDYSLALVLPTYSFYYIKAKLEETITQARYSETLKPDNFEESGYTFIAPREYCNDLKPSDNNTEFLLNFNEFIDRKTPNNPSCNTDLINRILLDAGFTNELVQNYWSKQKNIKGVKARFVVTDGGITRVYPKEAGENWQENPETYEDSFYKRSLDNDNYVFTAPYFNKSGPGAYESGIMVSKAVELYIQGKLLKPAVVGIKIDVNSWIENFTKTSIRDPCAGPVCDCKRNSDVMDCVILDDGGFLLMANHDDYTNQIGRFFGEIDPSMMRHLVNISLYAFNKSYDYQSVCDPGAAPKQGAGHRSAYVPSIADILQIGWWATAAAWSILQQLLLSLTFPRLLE
Procedure: FIGS. 22A-22D: α2δ-1-bound NMDARs contribute to brain injury and neurological deficit caused by MCAO in the brain. (A) Upper: Original gel images of coimmunoprecipitation (co-IP) analysis show the interaction between α2δ-1 and GluN1 in two samples from mouse brain tissues; Lower: Effect of α2δ-1Tat peptide (1 μM for 60 min) on the α2δ-1-GluN1 protein complex in mouse brain tissues (n=6 mice per group). (B) Representative gel images and quantification of co-IP analysis show the effect of OGD on the α2δ-1-GluN1 or α2δ-1-Cav2.2 association in mouse brain tissues (n=6 mice per group). IgG and input were used as negative and positive controls, respectively. (C) Original gel images and quantification of co-IP analysis show the effect of α2δ-1Tat peptide (P) and control peptide (C; both 1 μM for 30 min) on the α2δ-1-GluN1 or α2δ-1-Cav2.2 association in mouse brain slices subjected to OGD (O, n=6 mice per group). (D) Neurological severity scores (left) and representative TTC staining and quantification (right) of brain infarct volume in MCAO mice treated with α2δ-1Tat peptide or control peptide (both 200 μg/kg, i.p.) at 15 min before MCAO and immediately before reperfusion (n=8 mice per group). Data are shown as means±SEM. *p<0.05, **p<0.01 compared with the control peptide- or vehicle-treated group (paired Student's t-test for panels B-D and F; Mann-Whitney test for panel E). […]

[2] = molecular target: T2, NMDARs of RVLM-projecting PVN neurons (Rattus norvegicus, UniProt P35439+Q00959+Q00960); assay: Recordings of RVLM-projecting PVN neurons in slices of WKY rats and SHRs; format: cell-based
T2 construct: from tissue; host or cells: rat hypothalamic slices containing the PVN (Sprague-Dawley, WKY, SHR) and synaptosomes made from them
T2 sequence (Q00959 20-1464 limits assumed, other chains not shown): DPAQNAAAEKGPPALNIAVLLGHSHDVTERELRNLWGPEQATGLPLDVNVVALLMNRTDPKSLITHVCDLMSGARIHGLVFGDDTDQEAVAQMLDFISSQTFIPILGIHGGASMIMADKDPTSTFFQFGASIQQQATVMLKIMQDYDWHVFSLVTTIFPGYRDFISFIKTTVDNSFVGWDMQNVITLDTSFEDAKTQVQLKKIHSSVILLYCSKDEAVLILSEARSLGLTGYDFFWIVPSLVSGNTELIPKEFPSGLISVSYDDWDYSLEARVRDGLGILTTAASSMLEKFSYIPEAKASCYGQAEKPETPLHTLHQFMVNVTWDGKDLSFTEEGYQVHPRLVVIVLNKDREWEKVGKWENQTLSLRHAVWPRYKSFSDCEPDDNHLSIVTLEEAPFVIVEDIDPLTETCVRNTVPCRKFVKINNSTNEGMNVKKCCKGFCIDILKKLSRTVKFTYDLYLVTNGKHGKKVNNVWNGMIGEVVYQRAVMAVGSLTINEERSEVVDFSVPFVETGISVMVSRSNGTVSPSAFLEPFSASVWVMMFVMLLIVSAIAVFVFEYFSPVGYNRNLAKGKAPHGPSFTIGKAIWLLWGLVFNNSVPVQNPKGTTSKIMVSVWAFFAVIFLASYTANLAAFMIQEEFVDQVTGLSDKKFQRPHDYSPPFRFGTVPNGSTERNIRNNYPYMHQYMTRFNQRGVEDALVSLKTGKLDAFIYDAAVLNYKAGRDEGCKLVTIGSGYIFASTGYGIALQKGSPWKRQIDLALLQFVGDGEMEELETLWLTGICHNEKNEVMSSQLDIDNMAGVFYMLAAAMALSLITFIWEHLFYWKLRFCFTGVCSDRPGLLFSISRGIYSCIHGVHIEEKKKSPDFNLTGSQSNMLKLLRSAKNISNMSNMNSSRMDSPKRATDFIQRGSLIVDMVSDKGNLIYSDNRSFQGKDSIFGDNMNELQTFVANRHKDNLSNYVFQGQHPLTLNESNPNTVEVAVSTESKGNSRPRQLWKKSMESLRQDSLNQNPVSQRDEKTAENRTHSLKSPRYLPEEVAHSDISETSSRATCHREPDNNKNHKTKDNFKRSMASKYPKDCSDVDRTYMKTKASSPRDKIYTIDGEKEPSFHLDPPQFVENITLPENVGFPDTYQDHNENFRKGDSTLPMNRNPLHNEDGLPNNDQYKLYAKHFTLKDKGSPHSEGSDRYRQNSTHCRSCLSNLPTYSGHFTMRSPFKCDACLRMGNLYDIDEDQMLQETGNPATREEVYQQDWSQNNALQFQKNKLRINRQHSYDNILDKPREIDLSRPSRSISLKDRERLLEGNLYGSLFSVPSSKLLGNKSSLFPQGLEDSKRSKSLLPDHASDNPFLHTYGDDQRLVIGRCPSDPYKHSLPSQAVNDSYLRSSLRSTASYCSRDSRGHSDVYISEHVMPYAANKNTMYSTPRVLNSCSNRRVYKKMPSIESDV
T2 sequence (Q00960 27-1482, other chains not shown): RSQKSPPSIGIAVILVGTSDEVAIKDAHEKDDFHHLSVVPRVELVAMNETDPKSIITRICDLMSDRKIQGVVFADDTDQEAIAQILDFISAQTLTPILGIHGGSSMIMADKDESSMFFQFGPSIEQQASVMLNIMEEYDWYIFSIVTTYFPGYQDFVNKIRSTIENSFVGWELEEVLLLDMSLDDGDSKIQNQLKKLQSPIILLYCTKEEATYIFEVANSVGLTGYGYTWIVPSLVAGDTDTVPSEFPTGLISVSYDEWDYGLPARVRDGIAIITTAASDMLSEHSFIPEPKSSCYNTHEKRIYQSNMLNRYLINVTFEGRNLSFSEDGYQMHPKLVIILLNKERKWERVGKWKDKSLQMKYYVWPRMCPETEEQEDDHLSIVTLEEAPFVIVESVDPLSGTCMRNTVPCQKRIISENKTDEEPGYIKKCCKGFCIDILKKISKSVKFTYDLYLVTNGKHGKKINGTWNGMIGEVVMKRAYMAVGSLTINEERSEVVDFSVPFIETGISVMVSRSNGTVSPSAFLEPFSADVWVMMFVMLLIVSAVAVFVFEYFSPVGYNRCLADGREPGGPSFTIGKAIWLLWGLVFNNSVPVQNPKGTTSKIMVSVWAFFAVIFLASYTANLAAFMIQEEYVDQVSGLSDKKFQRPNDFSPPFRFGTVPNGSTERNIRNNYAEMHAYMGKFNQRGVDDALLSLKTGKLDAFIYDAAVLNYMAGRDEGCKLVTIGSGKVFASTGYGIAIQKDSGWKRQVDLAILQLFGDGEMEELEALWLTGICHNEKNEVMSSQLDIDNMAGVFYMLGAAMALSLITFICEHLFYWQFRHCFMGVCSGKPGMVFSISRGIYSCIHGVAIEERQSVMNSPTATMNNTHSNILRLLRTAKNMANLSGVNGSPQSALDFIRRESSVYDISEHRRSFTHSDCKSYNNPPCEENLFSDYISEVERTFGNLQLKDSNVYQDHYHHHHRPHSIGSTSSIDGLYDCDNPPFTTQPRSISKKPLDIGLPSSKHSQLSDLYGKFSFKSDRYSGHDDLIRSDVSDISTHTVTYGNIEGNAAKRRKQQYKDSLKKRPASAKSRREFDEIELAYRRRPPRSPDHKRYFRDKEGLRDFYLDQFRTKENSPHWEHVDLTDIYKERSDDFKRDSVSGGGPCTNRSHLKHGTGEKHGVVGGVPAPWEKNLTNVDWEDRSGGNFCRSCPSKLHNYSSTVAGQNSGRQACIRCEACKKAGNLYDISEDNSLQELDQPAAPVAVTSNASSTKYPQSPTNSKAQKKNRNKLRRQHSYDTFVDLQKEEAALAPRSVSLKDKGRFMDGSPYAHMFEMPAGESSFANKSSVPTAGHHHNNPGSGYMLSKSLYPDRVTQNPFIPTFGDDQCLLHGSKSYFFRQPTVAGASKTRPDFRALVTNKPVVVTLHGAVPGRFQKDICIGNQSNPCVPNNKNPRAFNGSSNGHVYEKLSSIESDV

## YGRKKRRQRRRVSGLNPSLWSIFGLQFILLWLVSGSRHYLW (a2d1 peptide) [α2δ-1Tat peptide, 30-amino-acid peptide mimicking the C-terminal domain of α2δ-1 fused to the cell-penetrating peptide Tat]
SHRs; 50 nL bilaterally into the PVN
  ABP and RSNA: significantly decreased
SHRs; 50 nL into the PVN
  duration of the effect on the mean ABP and RSNA: more than 60 min
[1]; OGD, 1 μM for 30 min
  α2δ-1-GluN1 interaction in brain tissues subjected to OGD: substantially reduced
[1]; brain slices, 1 μM for 60 min
  α2δ-1-GluN1 protein complex in brain tissues: large reduction
[2]; SHRs
  puff NMDA currents of labelled PVN neurons: restored
  ratio of NMDAR-EPSCs to AMPAR-EPSCs: normalized
[2]; SHRs, AP5 50 μmol L-1, gabapentin 100 μmol L-1, peptides 1 μmol L-1, 60 min
  baseline frequency of mEPSCs of labelled PVN neurons: completely normalized
[2]; SHRs, gabapentin 100 μmol L-1, peptides 1 μmol L-1, 60 min
  amplitude of evoked NMDAR-EPSCs of labelled PVN neurons: fully normalized
[2]; WKY rats
  amplitude of puff NMDA currents: had no effect
  frequency or amplitude of mEPSCs of labelled PVN neurons: had no effect
  ratio of NMDAR-EPSCs to AMPAR-EPSCs: had no effect
[2]; WKY rats or SHRs
  amplitude of evoked AMPAR-EPSCs of labelled PVN neurons: had no effect
[2]; WKY rats, gabapentin 100 μmol L-1, peptides 1 μmol L-1, 60 min
  amplitude of evoked NMDAR-EPSCs of labelled PVN neurons: had no effect
